Read-outs that look alike come from different tables or passages of the source.
How the values were obtained:
ComM = target: T1, ComM (Legionella pneumophila, UniProt A0A3A6V972); conditions: 5 mM AMPPNP, dsDNA/ssDNA hybrid, pH 8.0, 37 °C incubation; active site at interface between adjacent subunits
T1 construct: gene yifB

[1] = target: ComM from L. pneumophila fused to a C-terminal His6-tag (Legionella pneumophila) (UniProt Q5ZXZ0); test: cryo-EM structure
[2] = target: ComM from L. pneumophila fused to a C-terminal His6-tag (Legionella pneumophila) (UniProt Q5ZXZ0); test: cryo-EM structure; remark: listed apart in the source
[3] = target: RadA R301A mutant from S. pneumoniae (Streptococcus pneumoniae) (UniProt Q8DRP0); test: not stated; oligomeric state of RadA as purified for the biochemical assays
[4] = target: RadA from S. pneumoniae (Strep-tagged, for cryoEM) (Streptococcus pneumoniae) (UniProt Q8DRP0); test: cryo-EM structure; 7 uM RadA with 10 uM gapped hybrid DNA (combination CD) and 5 mM ATP-gamma-S, 30 min at 37 °C; Hepes 50 mM pH 8.0, NaCl 100 mM

`Nc1ncnc2c1ncn2[C@@H]1O[C@H](COP(=O)(O)OP(=O)(O)NP(=O)(O)O)[C@@H](O)[C@H]1O` [AMPPNP] was tested, and the “cryoEM structure, 3.1 Å” value (ComM) was “AMPPNP, which is located at the interface between two adjacent subunits”.

Compound “ComM from L. pneumophila fused to a C-terminal His6-tag (from UniProt Q5ZXZ0 1-503) (enzyme)” has a stoichiometry N [1] of 6 and a stoichiometry N [2] of 12.

“RadA R301A mutant from S. pneumoniae (from UniProt Q8DRP0) (enzyme)” gave a stoichiometry N [3] of 6.

Work on “RadA from S. pneumoniae (Strep-tagged, for cryoEM) (from UniProt Q8DRP0 1-420) (enzyme)” yielded a stoichiometry N [4] of 6.
